Test results published in US20170072041A1 (OHIO STATE INNOVATION FOUNDATION, published 2017).

T1: native human DNase X (deoxyribonuclease 1-like 1) from THP-1 cell lysate (human, UniProt P49184 19-302, limits assumed)
T1 construct: GPI-anchored cell surface protein; also called DNase 1L1; DN1L1
T1 sequence (looked up): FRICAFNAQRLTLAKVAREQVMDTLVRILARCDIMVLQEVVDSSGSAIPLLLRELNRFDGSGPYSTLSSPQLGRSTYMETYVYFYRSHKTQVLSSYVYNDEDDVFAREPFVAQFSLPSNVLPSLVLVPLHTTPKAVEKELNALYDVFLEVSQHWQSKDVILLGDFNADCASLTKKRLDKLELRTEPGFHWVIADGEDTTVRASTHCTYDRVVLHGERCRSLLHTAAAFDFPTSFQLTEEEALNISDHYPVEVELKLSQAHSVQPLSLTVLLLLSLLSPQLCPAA

T2: mouse DNase X on wild-type bone marrow-derived macrophages (BMDMs) (mouse, UniProt Q9D7J6 38-314)
T2 construct: whole, on cells
T2 sequence: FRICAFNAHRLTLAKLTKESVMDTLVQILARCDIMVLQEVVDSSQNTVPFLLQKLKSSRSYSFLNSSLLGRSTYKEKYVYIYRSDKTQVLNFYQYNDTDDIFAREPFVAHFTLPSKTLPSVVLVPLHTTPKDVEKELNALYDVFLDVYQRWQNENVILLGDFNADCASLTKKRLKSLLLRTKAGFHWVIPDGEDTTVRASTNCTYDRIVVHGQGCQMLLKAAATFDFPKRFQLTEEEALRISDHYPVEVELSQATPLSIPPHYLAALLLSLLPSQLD

T3: human DNase X on the cell surface (HEK293 cells, human primary macrophages derived from peripheral blood … (human, UniProt P49184 19-302))
T3 construct: whole, on cells; Endogenous protein on non-permeabilised cells; also called cell surface-exposed DNase X; surface DNase X
T3 sequence: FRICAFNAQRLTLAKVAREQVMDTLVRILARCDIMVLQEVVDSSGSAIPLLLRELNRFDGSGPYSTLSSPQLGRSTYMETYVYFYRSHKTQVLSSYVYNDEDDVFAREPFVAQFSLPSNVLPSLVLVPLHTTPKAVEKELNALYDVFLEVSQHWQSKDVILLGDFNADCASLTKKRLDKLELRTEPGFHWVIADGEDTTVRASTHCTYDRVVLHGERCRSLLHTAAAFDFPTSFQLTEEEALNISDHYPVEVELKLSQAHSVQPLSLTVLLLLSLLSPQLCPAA

B1: rEtpE-C (recombinant C-terminal region of EtpE/ECH1038, residues 1656-1963, C-terminal histidine-tagged fusion protein) (ligand)
chain: ELLSLVGGHRNASSNNANNGRSLSQGIRYKITFKISFAQNYFPVDEIIKLQQDANNMEYGVHGVHRTDIIALWSYISYASSKSKWLFKRYQSFAGLLFEIGAWGKCTSAERVFFTSMNRYSEKLPLKVYNFIRKITTGDFARKFSGMQSLYTYKQRVYDYVMHCVLRGGLGGECSDMTLREISNELHKLKQEIYSNYDVFRDLGITNGQQEVLLLINVMMLNYAMSDLLVSTTQVNSMLADVRSSLSRTAHCLPYGTVSQLQRSVSHMKYGEYSNYRASVVALWACISCLASFNDDMEPLIKLMLEGD
notes: Used renatured on membrane or Ni matrix, or coated on 0.5 um latex beads; also called rEtpE-C-coated beads; not shown: C-terminal histidine tag from pET33b(+)

Legend:
[1] = target: mouse DNase X on wild-type bone marrow-derived macrophages (BMDMs) (mouse) (UniProt Q9D7J6); assay: cell-based or functional assay
[2] = target: T1, native human DNase X (deoxyribonuclease …); assay: far-Western blot, THP-1 cell lysate, anti-DNase X
[3] = target: T2, mouse DNase X on wild-type bone …; assay: bead binding to BMDMs of wild-type and DNase X-/- mice, 30 min at 4 C
[4] = target: T3, human DNase X on the cell surface …; assay: immunofluorescence of non-permeabilised HEK293 cells incubated with coated beads

| Molecule | decrease in E. chaffeensis binding and entry into BMDMs at 4 h pi, DNase X-/- against wild type [1] [%] | binding result [2] | binding result [3] | binding result [4] |
| --- | --- | --- | --- | --- |
| native full-length EtpE (ECH1038, entry triggering protein of Ehrlichia) of E. chaffeensis Arkansas (ligand) | 60 |  |  |  |
| B1 |  | binds | binds | binds |
